Laboratory results from article PMC3858558 (2013).

Columns and labels:
[D-Trp6]LHRH [1] = molecular target: T1, [D-Trp6]LHRH (Homo sapiens, UniProt P01148, D-Trp6 analog, 125I-labeled radioligand); test: radioligand competition assay, tumor membranes (patient 4)
[D-Trp6]LHRH [2] = molecular target: T1, [D-Trp6]LHRH; test: radioligand competition assay, tumor membranes (patient 9)
[D-Trp6]LHRH [3] = molecular target: T1, [D-Trp6]LHRH; test: radioligand competition assay, tumor membranes (patient 6)
[D-Trp6]LHRH [4] = molecular target: T1, [D-Trp6]LHRH; test: radioligand competition assay, tumor membranes (patient 15)
[D-Trp6]LHRH [5] = molecular target: T1, [D-Trp6]LHRH; test: radioligand competition assay, tumor membranes (patient 30)
[D-Trp6]LHRH [6] = molecular target: T1, [D-Trp6]LHRH; test: radioligand competition assay, tumor membranes (patient 35)
[D-Trp6]LHRH [7] = molecular target: T1, [D-Trp6]LHRH; test: radioligand competition assay, tumor membranes (patient 12)
[D-Trp6]LHRH [8] = molecular target: T1, [D-Trp6]LHRH; test: radioligand competition assay, tumor membranes (mean of 7 specimens)

B1: type I LHRH receptor (protein)
chain: MANSASPEQNQNHCSAINNSIPLMQGNLPTLTLSGKIRVTVTFFLFLLSATFNASFLLKLQKWTQKKEKGKKLSRMKLLLKHLTLANLLETLIVMPLDGMWNITVQWYAGELLCKVLSYLKLFSMYAPAFMMVVISLDRSLAITRPLALKSNSKVGQSMVGLAWILSSVFAGPQLYIFRMIHLADSSGQTKVFSQCVTHCSFSQWWHQAFYNFFTFSCLFIIPLFIMLICNAKIIFTLTRVLHQDPHELQLNQSKNNIPRARLKTLKMTVAFATSFTVCWTPYYVLGIWYWFDPEMLNRLSDPVNHFFFLFAFLNPCFDPLIYGYFSL
Kd ([D-Trp6]LHRH [1]): 1.35 nM
Kd ([D-Trp6]LHRH [2]): 3.73 nM
Kd ([D-Trp6]LHRH [3]): 1.37 nM
Kd ([D-Trp6]LHRH [4]): 4.81 nM
Kd ([D-Trp6]LHRH [5]): 6.36 nM
Kd ([D-Trp6]LHRH [6]): 2.18 nM
Kd ([D-Trp6]LHRH [7]): 6.03 nM
Kd ([D-Trp6]LHRH [8]): 3.69 nM
